Source: the supplement of paper PMC10126150
± gives the standard deviation of the averaged measurements.

System: ATP
Test: switch fluorescence ratio, 500 uM ATP over buffer (Cy3 cluster intensity, sum of 5 cycles each) (fold (ratio)); higher = stronger signal-on switching upon ATP binding; sequences stand for … in TCGTCGGCAGCGTCAGATGTGTATAAGAGACAGTTTTTTTTTTTTTTTTTTTTTTTTT…TC
Details: aptamer strand: ATP DNA aptamer (quencher-CACCTGGGGGAGTATTGCGGAGGAAGG + anchor), 100 nM annealed; ATP concentration: 500 uM
Procedure, shortened: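 Switching-strand clusters labelled with Cy3 on a modified Illumina MiSeq flow-cell were annealed to 100 nM quencher-labelled ATP aptamer, imaged in selection buffer, and re-imaged after 15 min with 500 uM ATP at 22 °C. This was done over five cycles with NaOH stripping and re-annealing in between. The fluorescence ratio is summed target-cycle over summed buffer-cycle Cy3 intensity per cluster, averaged per switch-domain sequence, excluding clusters outside 100-1000 RFU.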
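Note: ATP exposure 15 min at 22 °C before imaging.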

Sequence | switch fluorescence ratio
CGTACTCGTA | 1.01 ± 0.019
TAATTAATGG | 1 ± 0.031
ATTACGGCAT | 1.18 ± 0.047
GGTATTGGCC | 0.987 ± 0.013
GGTCAGGGTT | 0.954 ± 0.035
ATATGGATTA | 1.012 ± 0.0068
TGAGAGGATC | 1.018 ± 0.0025
TCATAGGATT | 0.995 ± 0.04
TTTACGTGCG | 1.054 ± 0.0061
TCGGGTATCG | 0.976 ± 0.037
GTTGGGTGGG | 0.984 ± 0.013
GGGGACGGTA | 1.03 ± 0.027
CGCTCGTGCG | 1 ± 0.017
ACATACCGTG | 1.21 ± 0.038
TTGAGGTGGC | 0.982 ± 0.018
TTTGACTTTA | 1.003 ± 0.0029
TTTTCGTGCA | 1.03 ± 0.046
GGCTATTGCG | 0.995 ± 0.016
CAAAATATGC | 1.14 ± 0.12
CTAACCGGTA | 1.006 ± 0.0063
ACTTCTAACT | 1.07 ± 0.034
CATTGATTTT | 1.013 ± 0.0022
GAATGTTAGT | 0.964 ± 0.013

Sequence | switch fluorescence ratio
AGTTAACGGT | 1.18 ± 0.19
TGTTATTGAT | 1.02 ± 0.029
TATAGAGTTT | 1.01 ± 0.023
TGCTATTGTG | 0.959 ± 0.02
TAAAAATTTA | 1.01 ± 0.048
ATTTATTGAA | 0.996 ± 0.027
GCATTTCAGG | 0.98822 ± 0.00033
TGTGATTTTT | 1.01 ± 0.028
AAACAGCTCA | 0.994 ± 0.027
TGACCTGAGA | 1.04 ± 0.021
TGAAAAGGTC | 0.982 ± 0.063
GCGAAAACAG | 1 ± 0.088
ATGGAATGCG | 1.028 ± 0.0089
GGTGAACAGT | 0.97143 ± 0.00048
CCCTGTGAAA | 0.975 ± 0.028
TTGTAGGAGG | 0.9811 ± 0.0032
ACCATACTGC | 1.23 ± 0.12
CTTTTGGGAC | 0.987 ± 0.025
TTAGGGTGTT | 1 ± 0.07
ATTATGTGTC | 0.959 ± 0.048
CCTTGAGGGC | 1.34 ± 0.38
TTTTTCCGGA | 0.997 ± 0.048
AAGCTTATAT | 0.9999 ± 0.0089

Sequence | switch fluorescence ratio
ATTGGGTGTC | 0.985 ± 0.039
TGGCGTTAGG | 0.977 ± 0.019
AGTGGATTGG | 1.01 ± 0.045
AAGTCATTTG | 1.017 ± 0.0088
AGGGGATTGG | 0.991 ± 0.015
GGACGCGTGG | 1.01 ± 0.018
GAGTGTGAAA | 0.978 ± 0.035
TAAAATTCTT | 1.01 ± 0.025
AGTGGGGGAG | 1.002 ± 0.0087
TTTATGCCGG | 1.01 ± 0.029
TAACGGTATA | 1.11 ± 0.058
TTTTTTAGCG | 0.99 ± 0.029
CGCGAAAATG | 1.02 ± 0.022
GCTTAATGTG | 0.968 ± 0.027
GGTGGAAGAT | 1 ± 0.045
CAGCGGGACC | 1.03 ± 0.025
TGGTGGCTTA | 0.9827 ± 0.0025
TTTATTGTAA | 0.991 ± 0.031
TTAAATAGCG | 0.982 ± 0.036
TTTGTATAAC | 1.01 ± 0.012
GCAATATTTC | 2.31 ± 0.35
CAAGATCATT | 1.008 ± 0.0036
CGTGGGGGT | 0.996 ± 0.035

Sequence | switch fluorescence ratio
TGCAGTTTTT | 0.999 ± 0.029
CGTCTGGTGC | 1.03 ± 0.029
TTTGTTTTGC | 0.971 ± 0.019
AGGTTTTGGG | 0.979 ± 0.022
AAGGCTGGTG | 1.02 ± 0.015
TCTAGACTCA | 1.18 ± 0.29
TTAAAAAGGA | 0.986 ± 0.016
TGCGTTAGCC | 1.035 ± 0.0025
TTAGAGAGCG | 1.018 ± 0.0096
AATTCCGATA | 1.02 ± 0.026
GACTAGAGGG | 0.99 ± 0.034
CCGGTATTGT | 1.03 ± 0.037
ATAATGCTCT | 1.02 ± 0.024
CGATTTGACT | 1.02 ± 0.037
AGTGTTTCTG | 0.973 ± 0.049
GCAAGTGTTC | 1.01 ± 0.018
GGGTAGAATT | 1.03 ± 0.039
CCGTGGTTTA | 1 ± 0.01
CTTTTTTATT | 1.01 ± 0.0085
ATGTAATGAT | 1.02 ± 0.018
CTTGGTGGAC | 0.97 ± 0.048
AGTTGGTCTA | 1 ± 0.017
TATTGTGACT | 1.021 ± 0.01

Sequence | switch fluorescence ratio
AGGGGGCGCG | 1.01 ± 0.048
CGAAAATGGG | 0.9772 ± 0.0058
GGGTAAAGAT | 1.02 ± 0.021
GGTAAAGGGT | 0.991 ± 0.016
TATTGTTGTT | 0.9949 ± 0.0063
TATGGATGGC | 1.01 ± 0.058
CATGTTTGGT | 0.987 ± 0.013
ACCTGTTGTT | 0.991 ± 0.016
TGTTACGGGG | 0.98654 ± 0.00045
ATGGGGTGGG | 0.985 ± 0.026
TTTTGAGGTC | 0.986 ± 0.064
TTAGAAAGTT | 1.03 ± 0.091
GTGGTGTGTT | 1.05 ± 0.14
ATAGACTTTA | 1.04 ± 0.043
ATAAAGGTTG | 0.993 ± 0.016
GGTGGGTACG | 0.986 ± 0.052
TGCTGGGGGC | 0.971 ± 0.022
GGGCCCGTAT | 1.014 ± 0.0091
GAGAGCTCAC | 1.01 ± 0.021
TAGGGAGGCG | 0.962 ± 0.063
ACTTCTGGAG | 2.15 ± 0.028
TAGAAGTGCG | 1.01 ± 0.041
TGTGCTATTG | 0.983 ± 0.058

Sequence | switch fluorescence ratio
GGTATTGCTT | 0.995 ± 0.0021
TCGAGGCACT | 1.28 ± 0.17
GACAAAACTA | 1.16 ± 0.064
GGTATTTATC | 0.986 ± 0.038
GATTTTTCAG | 1.019 ± 0.006
TTAGAAATTT | 1.01 ± 0.02
ATATTGGAGA | 1.13 ± 0.25
CTAAAGGGGA | 1.08 ± 0.12
TTCCTTGCGG | 1.08 ± 0.057
GATGCAAAGG | 1.131 ± 0.011
ACAGGGGTTA | 1.25 ± 0.4
GAGAGTGACT | 0.969 ± 0.0083
TGTTTGTGTA | 1.03 ± 0.022
TTTTTTGCCC | 1.02 ± 0.048
ATTCGGGCCA | 1.01 ± 0.037
CAGCTACGTG | 1.0258 ± 0.00037
CTTTCCGAAG | 2.72 ± 0.03
ATGATTGACC | 1.083 ± 0.0026
CGATGTTTTG | 0.969 ± 0.031
GAGAAAATGG | 1.003 ± 0.0039
CGGGGTTCGT | 0.983 ± 0.028
GACTTTTTGC | 0.933 ± 0.055
TGGTACCTTT | 1.04 ± 0.012

Sequence | switch fluorescence ratio
ACGAATGTGC | 1.022 ± 0.0097
AAAAGGGCGT | 0.9944 ± 0.0066
CAATAAGATT | 1.016 ± 0.0077
AATGTCATTT | 1 ± 0.018
TTTTTTGATG | 1.01 ± 0.027
TGTTCAGGGA | 1.048 ± 0.0073
AGGGGAGAAC | 0.9758 ± 0.0086
TTTCGGATGG | 1.03 ± 0.057
TGGGGGGACT | 1.02 ± 0.029
TTGGGCAACG | 1.06 ± 0.022
TCGAGGTATA | 2.94 ± 2.6
TTTGAAGGTG | 1.45 ± 0.17
CAGTCTTCTT | 1.02 ± 0.026
AGCGGTAGGG | 1.022 ± 0.0082
GGCTTAGTTG | 0.982 ± 0.0024
GGGTTGTAGC | 0.9909 ± 0.0027
CTCGATTGTA | 0.999 ± 0.048
TTATCCTGGG | 1.01 ± 0.023
GTTGGTCTGG | 0.943 ± 0.048
